# Experimental data published in patent US7919579B2, “Imaging and therapeutic targeting of prostate and bladder tissues” (The Board of Regents of the University of Texas System, priority 2006, dated 2011).
# “Also recorded” adds a separate entry of the source.
# How the values were obtained:
# in vivo [1] = assay: in vivo; parameters: species or system nude mice; conditions: nude, mouse
# Description: Peptides may be radiolabeled with ^18F or ^64Cu for in vitro and in vivo PET imaging evaluations. The peptides may be prepared using standard F-moc chemistry on an automated peptide synthesizer. Pharmacokinetic parameters of ^64Cu-labeled R11, the lead peptide, were evaluated by the inventors in preliminary experiments by using a two-compartment model. […] However, due to the unknown mechanism of the peptide specificity, it is reasonable to assume that a longer circulation time in the blood is preferable to enhance the image contrast. […]
# The tissue distribution of the radiolabeled peptides or peptide conjugates may be evaluated in normal nude mice. […] At selected time points post-injection, animals may be sacrificed, and organs of interest removed, weighed, and counted. The percent injected dose per gram (% ID/g) and percent injected dose per organ (% ID/organ) can be calculated by comparison to a weighed, counted, standard. […] Specifically, blood (10-20-μL) can be drawn from the retroorbital sinus of the animals at 5-min, 10-min, 20-min, and 40-min, and counted on a gamma counter.
# The pharmacokinetics of the ^64Cu-labeled peptide was also evaluated by using a two-compartment model. […]
# in vivo [2] = assay: in vivo; parameters: species or system nude mice; conditions: nude, mouse; remark: listed apart in the source
# Source text: The lungs were removed from both mice. […] The harvested lungs were imaged by microPET again.
# [3] = biodistribution of ^64Cu-DOTA-R11 in normal nude mice; format: in vivo; conditions: 5-10 μCi; % ID/g
# Description: FIG. 6—Biodistribution data of ^64Cu-DOTA-R11 in normal nude mice (n=4). Data are presented as % ID/g±s.d. SV: seminal vesicle; CG: coagulation gland.
# The injected dose of ^64Cu-DOTA-R11 in the biodistribution studies was in range of 5-10 μCi. The animals were sacrificed at specific time points (n=4 at each time point). Organs of interest were removed, weighed, and counted. Standards were prepared and counted along with the samples to calculate the percent injected dose per gram tissue (% ID/g).
# In order to explore the application of R11 for the detection of bladder cancer metastasis via PET, the inventors conjugated this peptide with a bifunctional chelator, DOTA (1,4,7,10-tetraazacyclododecane-1,4,7,10-tetraacetic acid), so that R11 could be radiolabeled with ^64Cu. […] The radiolabeled peptide was purified via a C-18 cartridge (Millipore) to have >95% radiochemical purity as determined by radio-TLC and HPLC prior to the biodistribution and PET imaging studies. […] Organs of interest were removed, weighed, and counted. Standards were prepared and counted along with the samples to calculate the percent injected dose per gram tissue (% ID/g). […] In addition, the pharmacokinetics of the ^64Cu-labeled peptide was also evaluated by using a two-compartment model.
# in vivo [4] = conditions: nude, mouse, iv, uptake of control lungs
# Description: (§1) The tumor-bearing animal model was established by injecting into the left flank of each nude mouse subcutaneously with human T24 cell suspension (2×10^6 cells in 100-μL of medium). The tumors were allowed to grow for 42 days prior to PET imaging. […] The microPET imaging studies were performed using the microPETR4 rodent scanner (Concorde Microsystems, Knoxville, Tenn.). The scanner provides a 10×8 cm field of view, and the scanner is currently capable of an axial and transaxial resolution of 2 mm, with an absolute sensitivity of 900 counts per second per μCi. Images were reconstructed using Fourier rebinning followed by two-dimensional filtered back projection. […] At 15 min, 60 min, and 4 hr post injection (p.i.), the mice were anesthetized and immobilized in a supine position on a support bed with attached anesthetic gas nose cones for data collection. The imaging collection time was 10 min.
# (§2) After the 4-hr microPET imaging, the animals were sacrificed. The lungs were removed from both mice. […] The harvested lungs were imaged by microPET again.
# T24 lung metastases = conditions: mouse, in vivo
# Description: as §1, §2
smiles,measurement,setting,value
"N=C(N)NCCCC(NC(=O)C(CCCNC(=N)N)NC(=O)C(CCCNC(=N)N)NC(=O)C(CCCNC(=N)N)NC(=O)C(CCCNC(=N)N)NC(=O)C(CCCNC(=N)N)NC(=O)C(CCCNC(=N)N)NC(=O)C(CCCNC(=N)N)NC(=O)C(CCCNC(=N)N)NC(=O)C(CCCNC(=N)N)NC(=O)C(CCCNC(=N)N)NC(=O)CNC(=O)CN1CCN(CC(=O)O)CCN(CC(=O)O)CCN(CC(=O)O)CC1)C(=O)O (stereo not shown) [^64Cu-DOTA-R11, DOTA-G-RRRRRRRRRRR, metal not drawn]",half-life,in vivo [1]; elimination half life from other organs (the secondary compartment),17.2 h
same,half-life,in vivo [1]; half-life in the blood (the primary compartment),~0.178 h
same,tissue to tissue ratio,in vivo [2],> 8
same,accumulation in prostate and bladder,[3],strong tendency to accumulate in prostate and bladder
same,"uptake in other organs (blood, lungs, liver, spleen, kidneys, muscle)",[3],remarkably low uptake in other organs; also recorded: remarkably low uptake by other organs
same,tissue uptake at 0.25 h,in vivo [4],< 4 %ID/g
same,ex vivo microPET and autoradiography of lungs with T24 metastases,T24 lung metastases,elevated uptake
